# Laboratory results taken from the DeepSol protein solubility set.
# Test: soluble on expression in E. coli; label from the status in PepcDB or PDB records
row,Sequence,soluble on expression in E. coli
1,MLVEFDNPPLCMKSNKDGSRLVVGFVDGSIRFYDTQQHEEEFQEIWKFQTKSSIRGVDLDEHKKRVYAVTKNRSLCVFDIDTGKRVRCILKCHRSVPTAICTLPPTALKSQQLATADESGEVKTWNLDPEVASENANIRKWQEQDEDINDLKVDVKSNLLATSSDGTLGAYDLRKAKLKMRSELMHSELYSVCGTNRSVYVGGEDGYVEVFNLNEYGNLLERVESGFEMGVNGIVELRSGLLGLTSQGSNRMRLLNVQPSKRLGYAGYHGDEKSDDDGIDAITISTDKSTVFTMISMSCTIKKWDMGPIIDEIPILRAQDAKSKKMRKTEGFFDGLVGPKNDSDSDDDDEPKSKKRRNDEDSDEEIDEEEQEEDDEEEEEDSD,not soluble
2,MMAQEISNLVKKYNVTWQQTMLRIYDPKETVEFYEKNFGMINIHTYHFNEYNFSLYFLITPPYDEEERKKLPEPNTKESEKYLWNLNTVCLELTYNHNSQEKLSNGNNENDRGFGHIAFNCNDVIEQCDNLFKKNVKFHKLPHETKMKTIGFALDPNNYWIEIVKRSNQVKWKNYKNITNFSQTMIRVKNPEKSLYFYIHILGMKLIHVKHCSDFSLYFLKSNYACAENNKEMIEDQSNKNTNEIYDFNSLKNSYQTDEDYENFKQSWEPVLELTHNHGTEDDDNFSYHNGNTEPRGFGHIGFLVNDLENYCKELETLNVTFKKKVTEGLMKNIAFIYDPDNYVIELIQRDTSFIAK,not soluble
3,MMEDDGQPRTLYVGNLSRDVTEVLILQLFSQIGPCKSCKMITEHTSNDPYCFVEFYEHRDAAAALAAMNGRKILGKEVKVNWATTPSSQK,soluble
4,MMINQKNDIPLCAQEFSKLTDPLYIKKICLEKVHDWSRCNEDDVCVNQILSGLTNQLFEVSIKEDTAIEYRITRRHVLFRIYGKDVDALYNPLSEFEVYKTMSKYRIAPLLLNTFDGGRIEEWLYGDPLSIDDLKNKSILVGIANVLGKFHTLSRKRHLPEHWDKTPCVFKMMDRWRLAVSNYKNLDKVTLDINKYIQESHKFLKFIKIYTQIENIANDIVFCHNDLQENNIMNTNKCLRLIDFEYSGYNFLSADIANFFIETTIDYSYNAYPFFIINKKNYISYESRILFVTTYLSKYLDDSTAASDQDIIDQFLEAIEVQALGLHLIWAFWSIIRGYQTKSYNEFDFFLYAKERLKMYDEQKQYLMSKNIIKD,not soluble
5,MMKAKVIDAVSFSYILRTVGDFLSEANFIVTKEGIRVSGIDPSRVVFLDIFLPSSYFEGFEVSQEKEIIGFKLEDVNDILKRVLKDDTLILSSNESKLTLTFDGEFTRSFELPLIQVESTSPPSVNLEFPFKAQLLTITFADIIDELSDLGEVLNIHSKENKLYFEVIGDLSTAKVELSTDNGTLLEASGADVSSSYGMEYVANTTKMRRASDSMELYFGSQIPLKLRFKLPQEGYGDFYIAPRAD,soluble
6,MMKFDWNNPYPSTRIPVFARNVVATSHPLAAQAGLRILALGGNAADAAVASAATLALVEPASNGLGSDCFALVWDGARLHGLNASGTAPAAWSPGYFQRKHQGAIPLRGWDSVTIPGCVAGWASLHDKLGSLPFADVLAPAIEYAERGFAVPPTVQRRWADQVDPLRSLPGFAEHFLPHGRAPEVGEHFVLAGAAATLRRIAASGGRDFYEGETAQKLVAHAQAHEAALTLGDLRDYAPQWVEPISQAYRGHALHQLPPNGQGLAALIALGIVEHFDLASRPAEHPDTQHILIEAMKLAFADVHAHVADAAHIRIRVEQLLDPAYLAERARLIDLRRARVYNAAQAPQGGTVYLACADRNGMMVSFTQSNYMGFGSGIVVPGTGISLQNRGCCFSMDPDHPNVVGGGKRPFHTGIPAFLTQDGAPLMSFGIMGGNMQPQGHLQALVRMLDYRQQPQAACDAPRWKWNRGLSVDIEAAMPAQVTDALRARGHIVEVAAPADKDFGSGQFIWRLGDPAVDGYVAASDSRRDGLAAGFLEHHHHHH,not soluble
7,MMKPPSAIMETALYADDLDAAEAFYRDVFGLEMVLKLPGQLVFFKCGRQMLLLFDPQESSRADANNPIPRHGAVGQGHFCFYADDKAEVDEWKTRFEALEIPVEHYHRWPNGSYSVYIRDPAGNSVEVGEGKLWGFE,not soluble
8,MMKRALTGIQASGKQHLGNYLGVMQSLIELQEQCQLFVFVADLHSITVDFQPQALKQNNFDLVRTLLAVGLDPQKACLFLQSDLLEHSMMGYLMMVQSNLGELQRMTQFKAKKAEQTRNPNGTLNIPTGLLTYPALMAGDILLYQPDIVPVGNDQKQHLELTRDLAQRIQKKFKLKLRLPQFVQNKDTNRIMDLFDPTKKMSKSSKNQNGVIYLDDPKEVVVKKIRQATTDSFNKIRFAPKTQPGVTNMLTILKALLKEPVNQSLTNQLGNDLEAYFSTKSYLDLKNALTEATVNLLVNIQRKREQISREQVFNCLQAGKNQAQATARTTLALFYDGFGLGSQNIK,soluble
9,MMNASTKFSDNYDVKEELGKGAFSVVRRCVHKTTGLEFAAKIINTKKLSARDFQKLEREARICRKLQHPNIVRLHDSIQEESFHYLVFDLVTGGELFEDIVAREFYSEADASHCIQQILESIAYCHSNGIVHRDLKPENLLLASKAKGAAVKLADFGLAIEVNDSEAWHGFAGTPGYLSPEVLKKDPYSKPVDIWACGVILYILLVGYPPFWDEDQHRLYAQIKAGAYDYPSPEWDTVTPEAKSLIDSMLTVNPKKRITADQALKVPWICNRERVASAIHRQDTVDCLKKFNARRKLKAAISAVKMVTRMSGVLRTSDSTGSVASNGSTTHDASQVAGTSSQPTSPAAEVYPNVLLFNPQKFPRNCVHPFTTHPYYSPKESSKKKLFFTLLFEVCPHTSRSHILLRDNTKNIYHPYHCFTNKMSNYERAAPSSHGSSTTKKIANAIADLVIRRSSPSIRRKTEADVHNSNRNRKVSAPANLQHALVPVIDVVVATGALASSSVDNLSASTSSDLGRNLLNKKEQGPPSTIKESSESSQTIDDNDSEKGGGQLKHENTVVRADGATGIVSSSNSSTASKSSSTNLSAQKQDIVRVTQTLLDAISCKDFETYTRLCDTSMTCFEPEALGNLIEGIEFHRFYFDGNRKNQVHTTMLNPNVHIIGEDAACVAYVKLTQFLDRNGEAHTRQSQESRVWSKKQGRWVCVHVHRSTQPSTNTTVSEF,not soluble
10,MMRNEHVAKGITGVSWYDFKQKLKYKAECGNMEFIEIGRFDPSFEIWSRCGWIDYNLKLSDRIFRCENCGLVIDRDLNTAINISNMELKKVGKGIPEFTPVDIATAADPTIRTGTASSRSMNREPPKPKRLEHHHHHH,not soluble
11,MMRNFGREFLEETSIFENKTCLIWRDREISFKEFHEYIGKWKNVLDEQKTKTTNPLRIALFCTNSPDILAIIVAGQLSGVTVIPLNPSYKKYEIDEYISKSIANFIIVSDDVDLDKFEEREVNLISELFTSNVTPSSTASTPENQGVIVFFSSGTTGPPKQFEYTQRILCSQIDQIKAIRSDPRFFSPSTDDICYGVLPFFHAGGLITILSMIFSGCTVLINERWNEHEFLANCQNYKVSVLFLVPPVLNFFANHPLVSSYDLSALKTIYVGAAASPPENFAKVAERLPELENLIQLYGTSECGVLLCSTGKGKASGKTVGWPFPFVELKINPENNEIFVKSATAMEEGFMETGDLGCLSFKTIELMIVGRSKEMMKIRGWQVNPNEVEDVIRKVEGVLDCAVYQNQEKLTAKIIGNPDSKADIFKIVKDNLASYKQLDDVIFVEELPRNPSGKLVRHMLH,not soluble
12,MMRVKFNGKELDTDFKTSLEFFENISKNENDVWIINGFATKENIALNENDELFCIEKNTLPPKDALDAMMRARHTPKLHDKLKNGRVAVCGLGGLGSHIAINLARSGVGYLKLIDFDVIEPSNLNRQAYRVSDLGKFKTEALKEQISEINPYISVEICTLKIDEDNLESLFKDIDIVCEAFDSAIAKAMIAQNFHRFYKDGILICASGLAGYGDSNSIQTRKIAKNFYVCGDLVNGAKLGNGLMAPRVNICAGHQSNLVLELLANKELEHHHHHH,soluble
13,MMSTSDRSRLPLVYACSGCSSVAQLANAFAVRLDRSGQAEMSCISGVGGRVPALTRIAQSGRPILAIDGCQLACVKACLEGVGVVASRHLVLNRIGATKRQHGECTEAEEAATWQSIKLALSEILPVSESVVSN,soluble
14,MMTADAGICRPFKTKPARTIFGRFPARTVCLCASAIWTAAKSRCGWTAGVPSSLPTLPHPANAIPPNTVCSETQPSGTRKAAKPFSALPMPTAIRSKLPAAPVKRGSLFEPPSRFFGRFFVSDGRFFVSDLFCSSASGRVRAA,not soluble
15,MMTRLPLGATLPDFPWDSLADAKKTASSHPDGLINLSVGSPVDEVAPGIRLALAEAAAAPGYPQTIGTQELRAAIVDSLQRRYHATSLGGVLPVVGTKEAIALLPTLLGIRGTVVIPEVAYPTYEVGALMAGATPLRCDAPHELPNDDIDLVFINSPSNPTGRVASVEELRSIVAWAQANDVIVASDECYLGLAWDGEAVSILDPRVNDGNLSNLLAIHSLSKSSNLASYRAGFLAGDEALIAELTEIRKHSGLMVPGPIQAAMVEALRDDDQEALQKLRYARRRALLMRALIDAGFTVEHSEAGLYLWATRGENCRATVDWFASHGILVAPGDFYGPDAHNFVRVALTTTDDNAEKVAARLQKGN,soluble
16,MMVVNIKMQQMKSQFIQYNDSNNKVLYQKCKPVADIQNAEIQNIITEMHEKMQGNGIGLAANQIGYPYQIFMIEFDSSNARYPFSFDSVPYQVFINPKITKASKQRVSFWHGCLSALGEKRGKLATYKEIEYEAYNQHGEKITGKLDSIAAIIFQHEFNHLLGSVYVDFDTEYIDNEELQAKFASGELKPYQECGEEVPLLLEKYQIGKNI,not soluble
17,MMWIPYNQGFHAGPKCLTVVFIYLLNMKVLRHIYRFLMELYGPQGWWPLLDRDTMTLRYHPGDYTPPSDDGDVFEVITGSILTQNTSWDSAASALRNLAAMDALKPHRILSLDDAELEAAIRCAGFYRQKVSYLREMAGFFISLEGSTPSRKELLKVRGVGPETADSVLLYAYRKPEFVVDAYTRRILTHLGLIAGDESYHRIKELFERSLEPDFRVFQEYHALIVRHGKSYYRGRVHGDGDPLTEKLEHHHHHH,not soluble
18,MNAILHDMAVPFYKPVSNECSLFEAASRKGLPLLLKGPTGCGKTRFVEHMAARMGRKLYTVACHDDLSAADLIGRYLLKGGATEWVDGPLTRAVREGAICYLDEVVEARKDVTVVLHPLTDNRRTLMIDRTGEELVAPPGFMLVASYNPGYQNILKRLKPSTRQRFLSIGFTFPDPVTETAVVARESGLSEAKVAPLVRLAGHVRALSGMDLEEGVSTRLLVYAASLMAGGMSIEAALEAAVIEPLTDEPDVAQALRDLIATVYGLEHHHHHH,not soluble
19,MNAPIEPHRFILEPFEAHRFANLCGQFDEHLRLIEQRLAIEIRNRGNQFELIGEPRTTSAAEQLLRRLYRETKATDLSPETVHLYLQESAVENIDNPAVNEVSVSLRTRKGNIRPRGLNQQRYVKEILANDINFGIGPAGTGKTYLAVACAVDALEREQVRRILLVRPAVEAGEKLGFLPGDLAQKIDPYLRPLYDALYEMLGFEHVAKLIERQVIEIAPLAYMRGRTLNNSFIILDESQNTTLEQMKMFLTRIGFGSTAVITGDITQVDLPRGTKSGLAHVIEVLKDVPGISFTHFQPKDVVRHPLVQRIVEAYDRFEARQPKPEASGKDA,not soluble
20,MNAVTEGRKVLLEIADLKVHFEIKDGKQWFWQPPKTLKAVDGVTLRLYEGETLGVVGESGCGKSTFARAIIGLVKATDGHVAWLGKELLGMKPDEWRAVRSDIQMIFQDPLASLNPRMTIGEIIAEPLRTYHPKMSRQEVRERVKAMMLKVGLLPNLINRYPHEFSGGQCQRIGIARALILEPKLIICDEPVSALDVSIQAQVVNLLQQLQREMGLSLIFIAHDLAVVKHISDRVLVMYLGHAVELGTYDEVYHNPLHPYTRALMSAVPIPDPDLEKNKTIQLLEGELPSPINPPSGCVFRTRCPIAGPECAKTRPVLEGSFRHAVSCLKVDPL,not soluble
21,MNCREGCGACCIAPSISTPIPGMPQGKPAGERCLHLSVEHLCGLFGLPERPAVCGAFLADPEVCGESREEAIRLIGWWEQVTAALEHHHHHH,not soluble
